Drawing on article PMC9569824, this text covers stoichiometry N (RNase A units) for one substance.

The target of this experiment is bovine pancreatic ribonuclease A (bovine) (UniProt P61823). Kind of experiment: SEC; size of the SA-2 peak from stored N-swapped oligomers, estimated from its elution volume against the calibration curves of the Superdex columns; estimate only.

In the case of “bovine pancreatic ribonuclease A (from UniProt P61823 27-150) (enzyme)”, the stoichiometry N (RNase A units) was 180.
